Test results from publication PMC5928908 (Theranostics, 2018).

Target: full-length GST-PRMT5 (UniProt O14744 1-637)
Experiment: pull-down

Chain of full-length GST-PRMT5 (O14744 whole entry): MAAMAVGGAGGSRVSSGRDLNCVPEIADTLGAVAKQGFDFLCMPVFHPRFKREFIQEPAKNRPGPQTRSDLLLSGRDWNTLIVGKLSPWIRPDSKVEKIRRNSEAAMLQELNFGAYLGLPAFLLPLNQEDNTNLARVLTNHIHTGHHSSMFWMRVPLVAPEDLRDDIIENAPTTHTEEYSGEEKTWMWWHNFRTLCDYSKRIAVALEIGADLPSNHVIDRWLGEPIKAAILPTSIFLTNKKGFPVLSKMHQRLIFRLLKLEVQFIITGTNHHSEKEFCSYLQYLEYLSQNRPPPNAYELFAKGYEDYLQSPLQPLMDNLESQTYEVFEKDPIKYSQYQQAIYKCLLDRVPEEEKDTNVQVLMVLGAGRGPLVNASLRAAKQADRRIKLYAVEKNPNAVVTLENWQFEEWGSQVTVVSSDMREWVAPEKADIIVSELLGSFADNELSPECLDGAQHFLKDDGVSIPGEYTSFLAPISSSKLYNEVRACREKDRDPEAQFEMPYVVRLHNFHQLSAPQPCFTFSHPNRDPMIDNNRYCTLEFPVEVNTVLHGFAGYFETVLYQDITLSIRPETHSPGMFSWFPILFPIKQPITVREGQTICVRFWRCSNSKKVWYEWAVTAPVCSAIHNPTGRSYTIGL

B1: full-length His-CAPG (natural protein)
chain: MYTAIPQSGSPFPGSVQDPGLHVWRVEKLKPVPVAQENQGVFFSGDSYLVLHNGPEEVSHLHLWIGQQSSRDEQGACAVLAVHLNTLLGERPVQHREVQGNESDLFMSYFPRGLKYQEGGVESAFHKTSTGAPAAIKKLYQVKGKKNIRATERALNWDSFNTGDCFILDLGQNIFAWCGGKSNILERNKARDLALAIRDSERQGKAQVEIVTDGEEPAEMIQVLGPKPALKEGNPEEDLTADKANAQAAALYKVSDATGQMNLTKVADSSPFALELLISDDCFVLDNGLCGKIYIWKGRKANEKERQAALQVAEGFISRMQYAPNTQVEILPQGHESPIFKQFFKDWK
**Q.** Does B1 bind?
**A.** Result: binds
